These results are taken from patent publication US20170355769A1 (AbbVie / Abbott, published 2017).

In one assay the target is T1, Human full length B7-H3 (human, UniProt Q5ZPR3 29-534).
T1 construct: On 3T12 fibroblasts expressing full length human B7-H3 or on NCI-H1650 cells; signal peptide residues 1-28 stated; also called huB7-H3; CD276
T1 sequence: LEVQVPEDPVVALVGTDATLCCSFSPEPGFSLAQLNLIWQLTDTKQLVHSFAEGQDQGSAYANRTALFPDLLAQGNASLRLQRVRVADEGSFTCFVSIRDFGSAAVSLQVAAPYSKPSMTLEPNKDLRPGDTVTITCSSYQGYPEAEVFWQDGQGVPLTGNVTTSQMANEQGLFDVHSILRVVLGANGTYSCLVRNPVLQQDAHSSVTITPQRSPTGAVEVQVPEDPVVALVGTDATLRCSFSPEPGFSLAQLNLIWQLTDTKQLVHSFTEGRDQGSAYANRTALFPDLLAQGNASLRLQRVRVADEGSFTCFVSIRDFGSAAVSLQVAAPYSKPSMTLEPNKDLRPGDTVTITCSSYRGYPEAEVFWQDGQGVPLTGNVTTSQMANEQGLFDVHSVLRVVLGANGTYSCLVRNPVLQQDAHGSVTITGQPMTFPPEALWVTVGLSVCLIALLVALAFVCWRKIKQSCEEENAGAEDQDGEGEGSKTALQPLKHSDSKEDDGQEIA
The assay is described as follows: FACS, 3T12 transfectants. On the procedure:
(§1) A selection of hits were subcloned using the MoFlo (Beckman, Indianapolis, Ind., US) by depositing a single cell per well into 96 well cell culture plates to ensure clonality of the cell line. Resulting colonies were screened for specificity by FACS using mouse 3T12 fibroblast cell lines expressing the human B7-H3, cynomolgous B7-H3 or mouse B7-H3. Isotype of each monoclonal antibody was determined using the Mouse Monoclonal Isostyping Kit (Roche, No. 11-493-027-001, Indianapolis, Ind., USA).
In general terms: In flow cytometry, cells or beads pass a laser one at a time.

In assay [1] the target is T2, Cynomolgous B7-H3 on cells (cynomolgus).
T2 construct: whole, on cells; also called cyB7-H3; cyno B7-H3
Briefly: FACS, 3T12 transfectants. On the procedure: as §1

For another assay, the target named is T3, Mouse B7-H3 on cells (mouse, UniProt Q8VE98 29-316).
T3 construct: whole, on cells
T3 sequence (looked up): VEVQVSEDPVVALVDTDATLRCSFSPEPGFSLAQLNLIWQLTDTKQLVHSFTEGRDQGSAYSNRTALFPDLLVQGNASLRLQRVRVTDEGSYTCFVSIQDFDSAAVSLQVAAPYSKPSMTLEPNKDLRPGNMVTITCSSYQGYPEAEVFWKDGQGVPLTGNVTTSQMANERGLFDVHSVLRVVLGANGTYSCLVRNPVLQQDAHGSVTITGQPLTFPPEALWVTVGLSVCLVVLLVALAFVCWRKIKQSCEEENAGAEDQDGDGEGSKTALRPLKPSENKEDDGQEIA
Briefly: FACS, 3T12 transfectants. The procedure: as §1

Assay [2] deals with T4, Human B7-H3-ECD (His tag) (human, UniProt Q5ZPR3 29-461).
T4 construct: SPR analyte; also called huB7-H3; soluble ECD of human B7-H3
T4 sequence: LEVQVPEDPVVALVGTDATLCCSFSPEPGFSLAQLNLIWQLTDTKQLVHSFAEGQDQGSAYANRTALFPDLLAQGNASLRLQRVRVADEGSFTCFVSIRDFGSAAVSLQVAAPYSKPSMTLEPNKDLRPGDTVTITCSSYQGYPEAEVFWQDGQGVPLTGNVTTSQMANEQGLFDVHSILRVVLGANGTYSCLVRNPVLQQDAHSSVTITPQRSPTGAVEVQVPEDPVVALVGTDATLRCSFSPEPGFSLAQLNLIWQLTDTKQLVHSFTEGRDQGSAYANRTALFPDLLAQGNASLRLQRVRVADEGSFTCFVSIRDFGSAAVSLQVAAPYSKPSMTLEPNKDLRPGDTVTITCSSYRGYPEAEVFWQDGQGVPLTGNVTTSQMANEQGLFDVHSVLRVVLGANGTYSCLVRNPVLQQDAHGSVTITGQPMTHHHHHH
The assay is described as follows: SPR, mAb captured, ECD analyte.

The next assay deals with T5, Cyno B7-H3-ECD (his tag) (cynomolgus).
T5 construct: SPR analyte; also called soluble ECD of cyno B7-H3
T5 chain: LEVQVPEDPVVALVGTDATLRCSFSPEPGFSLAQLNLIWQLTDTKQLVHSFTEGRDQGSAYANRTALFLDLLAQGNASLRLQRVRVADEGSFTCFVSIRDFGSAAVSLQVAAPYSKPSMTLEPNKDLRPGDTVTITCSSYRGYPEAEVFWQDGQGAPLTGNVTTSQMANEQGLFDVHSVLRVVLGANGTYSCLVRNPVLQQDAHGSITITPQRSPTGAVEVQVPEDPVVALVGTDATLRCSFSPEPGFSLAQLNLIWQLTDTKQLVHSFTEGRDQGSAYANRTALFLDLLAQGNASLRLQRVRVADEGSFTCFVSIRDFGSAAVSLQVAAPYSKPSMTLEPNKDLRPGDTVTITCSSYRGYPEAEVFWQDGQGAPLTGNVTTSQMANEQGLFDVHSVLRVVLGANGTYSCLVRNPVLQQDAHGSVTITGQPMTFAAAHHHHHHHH
The assay is described as follows: SPR, mAb captured, ECD analyte. (SPR reads the build-up and loss of mass on a sensor chip optically.)

B1: Ab5 (antibody, mouse IgG1, V domains shown)
VH: QVQLQQPGDELVKPGASVKLSCKTSGYTFTTDWMHWVKQRPGQGLEWIGMIHPNSGTTNYNEKFKSKAALTVDKSSSTACMQLSSLTSEDSAVYYCARSYWKWYFDVWGTGTTVTVSS
VL: QIVLTQSPAIMSASLGEEITLTCSASSSVSYMHWYQQKSGTSPKLLIYSTSNLASGVPSRFSGSGSGTFYSLTISSVEAEDSADYYCHQWTSYMYTFGGGTKLEIK
notes: mouse IgG1/k
For B1, the EC50 with Human full length B7-H3 was found to be 2.71 nM; in assay [1], 1.91 nM; with Mouse B7-H3 on cells it was 6.01 nM. In addition, the Kd in assay [2] worked out at 9.2 nM; in the assay with Cyno B7-H3-ECD (his tag), 200 nM. Also, the dissociation rate constant (koff) in assay [2] was determined as 0.012 s⁻¹; in the assay with Cyno B7-H3-ECD (his tag), 0.28 s⁻¹. In addition, the on-rate (kon) in assay [2] was 1.3e+06 M⁻¹ s⁻¹; with Cyno B7-H3-ECD (his tag), 1.4e+06 M⁻¹ s⁻¹.

B2: Ab13 (antibody, mouse IgG1, V domains shown)
VH: DVQLQESGPDLVKPSQSLSLTCTVTGYSITSGYSWHWIRQFPGNKLEWMGYIHSSGSTNYNPSLKSRISINRDTSKNQFFLQLNSVTTEDTATYYCAGYDDYFEYWGQGTTLTVSS
VL: DIVMTQSQKFMSTSVGDRVSVTCKASQNVGFNVAWYQQKPGQSPKALIYSASYRYSGVPDRFTGSGSGTDFTLTISNVQSEDLAEYFCQQYNSYPFTFGSGTKLEIK
notes: mouse IgG1/k
As for B2, the figures for the EC50 (with Human full length B7-H3; in assay [1]; in the assay with Mouse B7-H3 on cells) were 1.94 nM, 4.12 nM and 25.8 nM, respectively. Also, the Kd in assay [2] was found to be 17 nM; in the assay with Cyno B7-H3-ECD (his tag) it was 8.4 nM. Besides, the dissociation rate constant (koff) in assay [2] was 0.0058 s⁻¹; with Cyno B7-H3-ECD (his tag) it was 0.0037 s⁻¹. The kon in assay [2] came out at 330000 M⁻¹ s⁻¹; in the assay with Cyno B7-H3-ECD (his tag), 440000 M⁻¹ s⁻¹.

B3: Ab12 (antibody, mouse IgG1, V domains shown)
VH: EVQLVESGGGLVKPGGSLKLSCAASGFTFSSYAMSWVRQTPEKRLEWVATISSGTNYTYYPDSVKGRFTISRDNAKNTLYLQMTSLRSEDTAMYYCARQGRYSWIAYWGQGTLVTVSA
VL: DIVLTQSPASLAVSLGQRATISCRASKSVSTSDYSYMHWNQQKPGQPPKLLIYLASNLESGVPARFSGSGSGTDFTLNIHPVEEEDAATYYCQHSRELLTFGAGTKLELK
notes: mouse IgG1/k
On to B3, for which the concentration for a half-maximal effect (EC50) in the assay with Human full length B7-H3 is 3.88 nM; in assay [1], 6.71 nM; with Mouse B7-H3 on cells it was 8.72 nM. For the same molecule, the Kd in assay [2] is 6.7 nM; with Cyno B7-H3-ECD (his tag), at most 0.18 nM. Moreover, the koff in assay [2] is 0.00025 s⁻¹; with Cyno B7-H3-ECD (his tag), at most 1e-05 s⁻¹. For the same molecule, the kon is 38000 M⁻¹ s⁻¹ in assay [2] and 55000 M⁻¹ s⁻¹ with Cyno B7-H3-ECD (his tag).

B4: Ab14 (antibody, mouse IgG1, V domains shown)
VH: EVKLVESGGGLVKPGGSLKLSCAASGFTFSSYGMSWVRQTPEKRLEWVATISGGGTNTYYPDSVEGRFTISRDNAKNFLYLQMSSLRSEDTALYYCARHYGSQTMDYWGQGTSVTVSS
VL: DIQMTQSPASLSASVGETVTITCRTSGNIHNYLTWYQQKQGKSPQLLVYNAKTLADGVPSRFSGSGSGTQFSLKINSLQPEDFGSYYCQHFWSIMWTFGGGTKLEIK
notes: mouse IgG1/k
Consider B4, for which the concentration giving a half-maximal response (EC50) with Human full length B7-H3 was 3.03 nM; in assay [1] it was 2.97 nM; in the assay with Mouse B7-H3 on cells it was 102 nM. Also, the Kd in assay [2] was found to be 13 nM; with Cyno B7-H3-ECD (his tag), 4.3 nM. For the same molecule, the koff was determined as 0.0014 s⁻¹ in assay [2] and 0.003 s⁻¹ in the assay with Cyno B7-H3-ECD (his tag). Also, the values for the association rate constant (kon) (in assay [2]; with Cyno B7-H3-ECD (his tag)) were 110000 M⁻¹ s⁻¹ and 690000 M⁻¹ s⁻¹, respectively.

B5: Ab8 (antibody, mouse IgG1, V domains shown)
VH: EVKLVESGGGLVKPGGSLKLSCAASGFTFSSYGMSWVRQTPEKRLEWVATISGGGNYTYCPDSVKGRFTISRDNAKNNLYLQMSSLRSEDTALYYCTRQRGYDYHYAMDFWGQGTSVTVSS
VL: DIQMTQSPASLSVSVGETVTITCRASENIYSNLAWHQQKQGKSPQLLVYAATNLADGVPSRFSGNGSDTQYSLKINSLQSEDFGSYFCQNFWGTSWTFGGGTKLEIK
notes: mouse IgG1/k
For the molecule B5, the EC50 with Human full length B7-H3 was determined as 3.83 nM; in assay [1], 8.63 nM; with Mouse B7-H3 on cells it was 193 nM. For the same molecule, the Kd (in assay [2]; in the assay with Cyno B7-H3-ECD (his tag)) was 1.7 nM throughout. The figures for the koff (in assay [2]; in the assay with Cyno B7-H3-ECD (his tag)) were 9.9e-05 s⁻¹ and 0.00026 s⁻¹, respectively. Further, the results for the kon (in assay [2]; with Cyno B7-H3-ECD (his tag)) were 58000 M⁻¹ s⁻¹ and 160000 M⁻¹ s⁻¹, respectively.

B6: Ab10 (antibody, V domains shown)
VH: DVQLQESGPGLVKPSQSLSLTCTVTGYSITSDYAWNWIRQFPGNRLEWMGHINYSGITNYNPSLKSRISITRDTSKNQFFLQLYSVTTEDTATYFCARRSLFYYYGSSLYAMDYWGQGTSVTVSS
VL: DVVMTQSPFSLPVSLGDQASISCRSSQSLVHSNGNTYLHWYLQKPGQSPKLLIYKVSNRFSGVPDRFSGSGSGTDFTLKISRVEAEDLGVYFCSQSTHVPWTFGGGTKLEIK
notes: mouse IgG2b/k
Regarding B6, the EC50 with Human full length B7-H3 is 3.97 nM; in assay [1], 4.46 nM; in the assay with Mouse B7-H3 on cells, 3.8 nM. For the same molecule, the Kd stood at 4.6 nM in assay [2] and 20 nM with Cyno B7-H3-ECD (his tag). For the same molecule, the figures for the koff (in assay [2]; with Cyno B7-H3-ECD (his tag)) were 0.00019 s⁻¹ and 0.0042 s⁻¹, respectively. Also, the kon in assay [2] was 41000 M⁻¹ s⁻¹; in the assay with Cyno B7-H3-ECD (his tag) it was 200000 M⁻¹ s⁻¹.

B7: Ab3 (antibody, mouse IgG1, V domains shown)
VH: QVQLQQPGAELVKPGASVKLSCKASGYTFSSYWMHWVKQRPGQGLEWIGLIHPDSGSTNYNEMFKNKATLTVDRSSSTAYVQLSSLTSEDSAVYFCAGGGRLYFDYWGQGTTLTVSS
VL: DVVMTQTPLSLPVSLGDQASISCRSSQSLVHSNGDTYLRWYLQKPGQSPKLLIYKVSNRFSGVPDRFSGSGSGTDFTLKITRVEAEDLGVYFCSQSTHVPYTFGGGTKLEIK
notes: mouse IgG1/k
Consider B7, for which the figures for the EC50 (with Human full length B7-H3; in assay [1]; with Mouse B7-H3 on cells) were 1.66 nM, 1.42 nM and 0.94 nM, respectively. The Kd in assay [2] is 19 nM; in the assay with Cyno B7-H3-ECD (his tag), 26 nM. The koff (in assay [2]; with Cyno B7-H3-ECD (his tag)) was 0.01 s⁻¹ in each case. The on-rate (kon) in assay [2] is 520000 M⁻¹ s⁻¹; with Cyno B7-H3-ECD (his tag), 380000 M⁻¹ s⁻¹.

B8: Ab16 (antibody, mouse IgG1, V domains shown)
VH: EVKLLESGGGLVQPGGSLKLSCAASGFDFSRYWMSWVRQAPGKGLEWIGEINPDSSTINYTPSLKDKFIISRDNAKNTLYLQMSKVRSEDTALYYCARPGFGNYIYAMDYWGQGTSVTVSS
VL: DIQMTQTTSSLSASLGDRVTINCRASQDISNFLNWYQQKPDGTVKLLIYYTSRLYLGVPSRFSGSGSGTDYSLTISNLEQEDIATYFCQQGNTLPPTFGGGTKLEIK
notes: mouse IgG1/k
On to B8, for which the 50% effective concentration (EC50) in the assay with Human full length B7-H3 amounted to 3.94 nM; in assay [1] it was 4.28 nM; in the assay with Mouse B7-H3 on cells it was 319 nM. Moreover, the Kd in assay [2] worked out at 24 nM; in the assay with Cyno B7-H3-ECD (his tag), 7.5 nM. The koff in assay [2] is 0.0032 s⁻¹; in the assay with Cyno B7-H3-ECD (his tag), 0.0056 s⁻¹. Besides, the kon in assay [2] came to 140000 M⁻¹ s⁻¹; in the assay with Cyno B7-H3-ECD (his tag) it was 750000 M⁻¹ s⁻¹.

One may read the EC50 as the midpoint of the concentration-response curve. Read a low EC50 as greater potency. The term Kd denotes the equilibrium constant for the complex coming apart. Lower therefore signals a tighter complex. Broadly, the koff is the rate constant with which the complex falls apart. Low readings indicate a long-lived complex, high ones a short-lived complex. The term kon denotes a measure of how fast the partners come together. Read a high kon as fast association.
